In publication PMC4017264 (Molecular Cell, 2014):

B1: HOIP extended PUB domain (aa 1–184) [not stated] / FITC-Ahx-labeled OTULIN PIM peptide (aa 49–67) [modified: FITC-Ahx label; FITC-Ahx label] [not stated] (parent complex)
chain 1: MPGEEEERAFLVAREELASALRRDSGQAFSLEQLRPLLASSLPLAARYLQLDAARLVRCNAHGEPRNYLNTLSTALNILEKYGRNLLSPQRPRYWRGVKFNNPVFRSTVDAVQGGRDVLRLYGYTEEQPDGLSFPEGQEEPDEHQVATVTLEVLLLRTELSLLLQNTHPRQQALEQLLEDKVED
chain 2: AEHEEDMYRAADEIEKEKE

Variants of: B1
Test: fluorescence polarisation; triplicate

Kd | Variant
64.5 µM | chain 2 AEHEEDMFRAADEIEKEKE [chain 2 Y8F]
21.3 µM | chain 2 AEHEEDMWRAADEIEKEKE [chain 2 Y8W]
11.2 µM | chain 2 AEHEEAMYRAADEIEKEKE [chain 2 D6A]

Variants of: B1
Test: fluorescence polarisation; triplicate
Remark: another data set of the same source

Kd | Variant
2.03 µM | chain 1 MPGEEEERAFLVAREELASALRRDSGQAFSLEQLRPLLASSLPLAARYLQLDAARLVRCNAHGEPRNYLNTLSTALNILEKYGRNLLSPQRPRYWRGVKFNNPAFRSTVDAVQGGRDVLRLYGYTEEQPDGLSFPEGQEEPDEHQVATVTLEVLLLRTELSLLLQNTHPRQQALEQLLEDKVED [chain 1 V104A]
